Experimental data as given in the RNAGym collection of RNA variant scans (doi:10.1093/nar/gkz1192).

B1: CPEB3 Ribozyme (parent)
chain: UAACAGGGGGCCACAGCAGAAGCGUUCACGUCGCAGCCCCUGUCAGAUUCUGGUGAAUCUGCGAAUUCUGCUGUAUAUCUC

Variants of: B1
Assay: self-cleavage, relative activity (ratio to wild type); higher = more cleavage; in vitro, sequencing
Method in brief: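 Relative activity compares each variant's cleaved/total read fraction with that of the unmutated ribozyme. To get these fractions, barcoded CPEB3 ribozyme libraries from rounds of error-prone PCR were transcribed with T7 RNA polymerase for 5 hours at 37°C and then given 15 min of DNase I treatment before EDTA was added. The RNAs were reverse transcribed with template switching and sequenced on Illumina, and DNA sequencing linked barcodes to variants. A minimum of 5 reads applied, and three batches were averaged.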

Point of comparison: UAACAGGGGGCCACAGCAGACGCGUUCACGUCGCAGCCCCUGUCAGAUUCUGGUGAAUCUGCGAAUUCUGCUGUAAAUCUC, self-cleavage 0.1. Against it:
- UAACAGGGGGCCACAGCAGACGCGUUCACGUCGCAGCCCCUGUCAGAUUCUGGUGAAUCUGCGAAUUCUGCUGCAUAUCUC — lower, 0.08
- UAACAGGGGGCCACAGCAGAGGCGUUCACGUCGCAGCCCCUGUCAGAUUCUGGUGAAUCUGCGAAUUCUGCUGUGUAUCUC — higher, 0.56
- UAACAGGGGGCCACAGCAGAGGCGUUCACGUCGCAGCCCCUGUCAGAUUCUGGUGAAUCUGCGAAUUCUGCUGUCUAUCUC — higher, 0.62
- UAACAGGGGGCCACAGCAGAGGCGUUCACGUCGCAGCCCCUGUCAGAUUCUGGUGAAUCUGCGAAUUCUGCUGUUUAUCUC — higher, 0.72
- UAACAGGGGGCCACAGCAGACGCGUUCACGUCGCAGCCCCUGUCAGAUUCUGGUGAAUCUGCGAAUUCUGCUGUAUACCUC — higher, 0.37
- UAACAGGGGGCCACAGCAGAGGCGUUCACGUCGCAGCCCCUGUCAGAUUCUGGUGAUUCUGCGAAUUCUGCUGUAUAUCUC — higher, 0.38
- UAACAGGGGGCCACAGCAGAGGCGUUCACGUCGCAGCCCCUGUCAGAUUCUGGUGAGUCUGCGAAUUCUGCUGUAUAUCUC — higher, 0.49
- UAACAGGGGGCCACAGCAGAGGCGUUCACGUCGCAGCCCCUGUCAGAUUCUGGUGAAUCUGCGAUUUCUGCUGUAUAUCUC — higher, 0.24
- UAACAGGGGGCCACAGCAGAGGCGUUCACGUCGCAGCCCCUGUCAGAUUCUGGUGAAUCUGCGACUUCUGCUGUAUAUCUC — higher, 0.12
- UAACAGGGGGCCACAGCAGAGGCGUUCACGUCGCAGCCCCUGUCAGAUUCUGGUGAAUCUGCGAGUUCUGCUGUAUAUCUC — higher, 0.28
- UAACAGGGGGCCACAGCAGAGGCGUUCACGUCGCAGCCCCUGUCAGAUUCUGGUGCAUCUGCGAAUUCUGCUGUAUAUCUC — higher, 0.36
- UAACAGGGGGCCACAGCAGAGGCGUUCACGUCGCAGCCCCUGUCAGAUUCUGGUGGAUCUGCGAAUUCUGCUGUAUAUCUC — higher, 0.4
- UAACAGGGGGCCACAGCAGAGGCGUUCACGUCGCAGCCCCUGUCAGAUUCUGGUGUAUCUGCGAAUUCUGCUGUAUAUCUC — higher, 0.41
- UAACAGGGGGCCACAGCAGAGGCGUUCGCGUCGCAGCCCCUGUCAGAUUCUGGUGAAUCUGCGAAUUCUGCUGUAUAUCUC — higher, 0.35
- UAACAGGGGGCCACAGCAGAGGCGUUCUCGUCGCAGCCCCUGUCAGAUUCUGGUGAAUCUGCGAAUUCUGCUGUAUAUCUC — higher, 0.38
- UAACAGGGGGCCACAGCAGAGGCGUUCCCGUCGCAGCCCCUGUCAGAUUCUGGUGAAUCUGCGAAUUCUGCUGUAUAUCUC — higher, 0.3
- UAACAGGGGGCCACAGCAGAGGCGUUCACGUCGCAGCCCCUGUCAGAUUCUGGUGAAUCUGCGAAUUCUGCUGUAUAUCUC — higher, 0.64
- UAACAGGGGGCCACAGCAGAGGCGUUCACGUCGCAGCCCCUGUCAGAUUCUGGUGAAUCUGCGCAUUCUGCUGUAUAUCUC — higher, 0.37
- UAACAGGGGGCCACAGCAGAGGCGUUCACGUCGCAGCCCCUGUCAGAUUCUGGUGAAUCUGCGUAUUCUGCUGUAUAUCUC — higher, 0.26
- UAACAGGGGGCCACAGCAGAGGCGUUCACGUCGCAGCCCCUGUCAGAUUCUGGUGAAUCUGCGGAUUCUGCUGUAUAUCUC — higher, 0.42
- UAACAGGGGGCCACAGCAGACGCGUUCACGUCGCAGCCCCUGUCAGAUUCUGGUGAAUCUGCGAAUUCUGCUGUAUAUCAC — higher, 0.18
- UAACAGGGGGCCACAGCAGACGCGUUCACGUCGCAGCCCCUGUCAGAUUCUGGUGAAUCUGCGAAUUCUGCUGUAUAUCCC — the same, 0.1
- UAACAGGGGGCCACAGCAGAGGCGUUCACGUCGCCGCCCCUGUCAGAUUCUGGUGAAUCUGCGAAUUCUGCUGUAUAUCUC — higher, 0.13
- UAACAGGGGGCCACAGCAGAGGCGUUCACGUCGCGGCCCCUGUCAGAUUCUGGUGAAUCUGCGAAUUCUGCUGUAUAUCUC — higher, 1.16
- UAACAGGGGGCCACAGCAGAGGCGUUCACGUCGCUGCCCCUGUCAGAUUCUGGUGAAUCUGCGAAUUCUGCUGUAUAUCUC — higher, 0.27
- UAACAGGGGGCCACAGCAGAGGCGUUCACGUCGCAGCCCCUGUCAGUUUCUGGUGAAUCUGCGAAUUCUGCUGUAUAUCUC — higher, 0.36
- UAACAGGGGGCCACAGCAGAGGCGUUCACGUCGCAGCCCCUGUCAGGUUCUGGUGAAUCUGCGAAUUCUGCUGUAUAUCUC — higher, 0.42
- UAACAGGGGGCCACAGCAGACGCGUUCACGUCGCAGCCCCUGUCAGAUUCUGGUGAAUCUGCGAAUUCCGCUGUAUAUCUC — higher, 0.2
- UAACAGGGGGCCACAGCAGACGCGUUCACGUCGCAGCCCCUGUCAGAUUCUGGUGAAUCUGCGAAUUCAGCUGUAUAUCUC — higher, 0.17
- UAACAGGGGGCCACAGCAGAGGCGUUCACGUCGCAGCCCCUGUCUGAUUCUGGUGAAUCUGCGAAUUCUGCUGUAUAUCUC — higher, 0.32
- UAACAGGGGGCCACAGCAGAGGCGUUCACGUCGCAGCCCCUGUCCGAUUCUGGUGAAUCUGCGAAUUCUGCUGUAUAUCUC — higher, 0.25
- UAACAGGGGGCCACAGCAGAGGCGUUCACGUCGCAGCCCCUGUCGGAUUCUGGUGAAUCUGCGAAUUCUGCUGUAUAUCUC — higher, 0.44
- UAACAGGGGGCCACAGCAGACGCGUUCACGUCGCAGCCCCUGUCAGAUUCUGGUGAAUCUGCGAAUUCUGCAGUAUAUCUC — higher, 0.19
